Where two headings read alike, the source gives them in different places.

In the case of TFEB: 3xSA-TR (S134A, S138A, S142A), the localisation_or_trafficking result runs as follows: (phosphorylation at S134) “decreases”; (phosphorylation at S138) “decreases”; (phosphorylation at S142) “decreases”.

For “TFEB: 5xSA-TR (S122A, S134A, S138A, S142A, S211A)”, the localisation_or_trafficking entry is, setting by setting: (phosphorylation at S122) “abolishes”; (phosphorylation at S134) “abolishes”; (phosphorylation at S138) “abolishes”; (phosphorylation at S142) “abolishes”; (phosphorylation at S211) “abolishes”.

For the origin of these results see paper PMC10547473.
